# Where two headings read alike, the source gives them in different places.
# Legend:
# Assay in all cases: EMSA
# RecQ helicase [1] = target: T1, RecQ helicase (Escherichia coli, UniProt P15043 1-609)
# RecQ helicase [2] = target: T1, RecQ helicase; remark: listed apart in the source
# RecQ helicase [3] = target: T1, RecQ helicase; remark: listed apart in the source
# T1 sequence (P15043 whole entry): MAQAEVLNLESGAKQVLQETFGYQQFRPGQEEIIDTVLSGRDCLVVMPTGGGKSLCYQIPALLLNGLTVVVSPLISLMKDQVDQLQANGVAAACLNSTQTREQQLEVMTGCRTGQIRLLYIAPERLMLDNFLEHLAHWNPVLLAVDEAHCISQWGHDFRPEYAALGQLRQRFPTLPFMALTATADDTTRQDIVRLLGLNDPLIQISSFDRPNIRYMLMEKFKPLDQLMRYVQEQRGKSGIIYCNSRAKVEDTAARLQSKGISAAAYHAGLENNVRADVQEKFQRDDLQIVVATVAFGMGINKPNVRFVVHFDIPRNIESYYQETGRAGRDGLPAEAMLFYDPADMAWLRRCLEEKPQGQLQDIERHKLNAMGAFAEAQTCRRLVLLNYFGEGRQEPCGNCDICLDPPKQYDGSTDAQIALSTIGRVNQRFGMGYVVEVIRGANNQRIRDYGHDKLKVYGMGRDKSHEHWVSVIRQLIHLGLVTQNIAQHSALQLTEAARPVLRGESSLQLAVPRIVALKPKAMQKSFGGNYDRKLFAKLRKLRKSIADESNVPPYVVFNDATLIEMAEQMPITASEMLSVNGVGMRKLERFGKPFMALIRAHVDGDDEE
Binder,Kd (RecQ helicase [1]),Kd (RecQ helicase [2]),binding result (RecQ helicase [3])
dT52 (ssDNA) DNA: TTTTTTTTTTTTTTTTTTTTTTTTTTTTTTTTTTTTTTTTTTTTTTTTTTTT,170 ± 10 nM,150 ± 20 nM,–
TTTTTTTTTTTTTTTTTTTTTTTTT (ssDNA) [dT25],1000 ± 100 nM,400 ± 60 nM,–
TTTTTT (ssDNA) [dT6],–,–,no binding

# From PMC3330151
